Source: the supplement of paper PMC7877785
± gives the uncertainty stated by the source.

Assay: self-splicing fitness, log relative to wild type (ln ratio); higher = more splicing; Tetrahymena group I intron in knt gene, E. coli kanamycin selection, DiMSum; sequences stand for … in CUCUCU…GGAGGGAAAAGUUAUCAGGCAUGCACCUGGUAGCUAGUCUUUAAACCAAUAGAUUGCAUCGGUUUAAAAGGCAAGACCGUCAAAUUGCGGGAAAGGGGUCAACAGCCGUUCAGUACCAAGUCUCAGGGGAAACUUUGAGAUGGCCUUGCAAAGGGUAUGGUAAUAAGCUGACGGACAUGGUCCUAACCACGCAGCCAAGUCCUAAGUCAACAGAUCUUCUGUUGAUAUGGAUGCAGUUCACAGACUAAAUGUCGGUCGGGGAAGAUGUAUUCUUCUCAUAAGAUAUAGUCGGACCUCUCCUUAAUGGGAGCUAGCGGAUGAAGUGAUGCAACACUGGAGCCGCUGGGAACUAAUUUGUAUGCGAAAGUAUAUUGAUUAGUUUUGGAGUACUCGUGGUCG
In short: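 Library with all eight P1ex-region intron nucleotides randomised, intron inside the knt kanamycin-resistance gene on pET-22b(+), in E. coli BL21(DE3). Cells grew overnight at 37°C or 30°C on LB agar with or without 25 μg/mL kanamycin (plus 100 μg/mL carbenicillin, 50 μM IPTG, 0.2% rhamnose), in six replicate transformations. Pooled colonies were amplicon-sequenced on Illumina HiSeq 2500. DiMSum fitness is the error-weighted combination of wild-type-normalised replicate fold changes, kanamycin versus none.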

| Sequence | self-splicing fitness (ln) (30 °C) | self-splicing fitness (ln) (37 °C) |
| --- | --- | --- |
| UAAAAGCAAUAUUACGUUCU | -1.87 ± 0.14 | -1.13 ± 0.14 |
| AAGAAGCAAUAUUACGUUGU | -3.2 ± 0.1 | -2.06 ± 0.11 |
| AAGCAGCAAUAUUACGUAGG | -2.79 ± 0.096 | -1.96 ± 0.13 |
| UAACAGCAAUAUUACGGCAU | -1.85 ± 0.093 | 0.0326 ± 0.093 |
| CGCAAGCAAUAUUACGGUAC | -4.99 ± 0.45 | -3.6 ± 0.16 |
| CGUCAGCAAUAUUACGCGAG | -4.12 ± 0.36 | -0.926 ± 0.17 |
| GUUUAGCAAUAUUACGAGUC |  | -0.725 ± 0.21 |
| UCCUAGCAAUAUUACGGAGG | -2.63 ± 0.17 | -1.73 ± 0.2 |
| GUAUAGCAAUAUUACGUGUU | -3.38 ± 0.18 | -1.63 ± 0.18 |
| CUUGAGCAAUAUUACGGCUC |  | -1.67 ± 0.36 |
| UUUGAGCAAUAUUACGCCUA | -0.79 ± 0.45 |  |
| UUUGAGCAAUAUUACGCUAC |  | -1.45 ± 0.3 |
| CGUUAGCAAUAUUACGCGGC | -2.07 ± 0.23 | -2.19 ± 0.26 |
| CGUAAGCAAUAUUACGCGUU | -3.69 ± 0.36 | -2.31 ± 0.32 |
| GAUAAGCAAUAUUACGGUGA | -1.61 ± 0.093 | -1.1 ± 0.12 |
| CGCUAGCAAUAUUACGAAUG | -1.33 ± 0.17 | -0.192 ± 0.16 |
| GCCAAGCAAUAUUACGACAU | -2.357 ± 0.015 | -1.37 ± 0.033 |
| AAGUAGCAAUAUUACGCCCU | -0.145 ± 0.17 | -0.639 ± 0.19 |
| UGAUAGCAAUAUUACGAUGC | -3.93 ± 0.26 | -1.95 ± 0.17 |
| UUCAAGCAAUAUUACGAGUU | -2.6 ± 0.12 | -0.389 ± 0.099 |
| AAAGAGCAAUAUUACGACCG | -3.83 ± 0.18 | -2.5 ± 0.19 |
| UCUAAGCAAUAUUACGGUAC | -3.5 ± 0.3 | -2.78 ± 0.4 |
| CUCCAGCAAUAUUACGUGAA | -1.24 ± 0.065 | -0.328 ± 0.09 |
| AUUCAGCAAUAUUACGAGAC |  | -0.937 ± 0.18 |
| CUGUAGCAAUAUUACGAAAG | -1.61 ± 0.1 | -0.788 ± 0.14 |
| GCCCAGCAAUAUUACGGACU | -2.51 ± 0.16 | -0.873 ± 0.21 |

| Sequence | self-splicing fitness (ln) (30 °C) | self-splicing fitness (ln) (37 °C) |
| --- | --- | --- |
| AGAUAGCAAUAUUACGAUUA | -0.68 ± 0.15 | -0.852 ± 0.14 |
| CGAGAGCAAUAUUACGAGGC | -1.83 ± 0.24 | -0.565 ± 0.48 |
| ACCAAGCAAUAUUACGCUCG | -2.2 ± 0.12 | -1.32 ± 0.13 |
| GCACAGCAAUAUUACGGAGA | -2.85 ± 0.12 | -2.16 ± 0.13 |
| GCUCAGCAAUAUUACGCCUG | -2.66 ± 0.26 | -2.42 ± 0.32 |
| GAUAAGCAAUAUUACGCAAU | -2.21 ± 0.13 | -0.936 ± 0.16 |
| UGAAAGCAAUAUUACGAUGA | -0.217 ± 0.088 | -0.415 ± 0.1 |
| CGUGAGCAAUAUUACGAGUG | -1.24 ± 0.12 | 0.147 ± 0.16 |
| UUGUAGCAAUAUUACGGAUU |  | -2 ± 0.34 |
| GACGAGCAAUAUUACGAUAA |  | -2.09 ± 0.43 |
| CUAGAGCAAUAUUACGGUAU |  | -1.76 ± 0.49 |
| AUAGAGCAAUAUUACGCGGU | -4.29 ± 0.35 | -1.64 ± 0.24 |
| AUAGAGCAAUAUUACGGGAG | -4.25 ± 0.24 | -2.26 ± 0.22 |
| CGGUAGCAAUAUUACGGUCC | -2.24 ± 0.15 | -0.321 ± 0.17 |
| GCGUAGCAAUAUUACGACAC | -0.714 ± 0.092 | -0.0138 ± 0.097 |
| GCAUAGCAAUAUUACGGAGA | -4.01 ± 0.37 | -3.02 ± 0.33 |
| ACGCAGCAAUAUUACGAUCA | -1.66 ± 0.099 | -1.26 ± 0.093 |
| AUCCAGCAAUAUUACGGAAU | -2.94 ± 0.13 | -1.91 ± 0.17 |
| AAUGAGCAAUAUUACGUGGG | -4.39 ± 0.36 | -2.87 ± 0.21 |
| UCCGAGCAAUAUUACGGAUC |  | -2.41 ± 0.39 |
| UCAGAGCAAUAUUACGCGCG | -2.44 ± 0.19 | -1.79 ± 0.18 |
| UAUCAGCAAUAUUACGAUGA | -0.667 ± 0.075 | 0.19 ± 0.099 |
| AUGGAGCAAUAUUACGCCGC | -1.29 ± 0.44 |  |
| CCGAAGCAAUAUUACGUAAG | -0.257 ± 0.055 | 0.2 ± 0.073 |
| AAGUAGCAAUAUUACGCAUA | -1.31 ± 0.15 | -0.759 ± 0.15 |
| GUGAAGCAAUAUUACGCUUC | -4.23 ± 0.32 | -2.41 ± 0.3 |

| Sequence | self-splicing fitness (ln) (30 °C) | self-splicing fitness (ln) (37 °C) |
| --- | --- | --- |
| ACGAAGCAAUAUUACGCUGA | -0.881 ± 0.11 | -0.99 ± 0.1 |
| ACUAAGCAAUAUUACGCGAC | -2.71 ± 0.19 | -2.78 ± 0.21 |
| AGCCAGCAAUAUUACGCACA | -1.96 ± 0.13 | -0.518 ± 0.11 |
| CCCGAGCAAUAUUACGAUCG | -3.58 ± 0.32 | -2.71 ± 0.41 |
| ACCAAGCAAUAUUACGUUUC | -4.28 ± 0.17 | -2.55 ± 0.14 |
| ACCUAGCAAUAUUACGUGUU | -3.18 ± 0.1 | -1.4 ± 0.085 |
| UAAAAGCAAUAUUACGGGUC | -3.09 ± 0.25 | -2.82 ± 0.27 |
| AUGUAGCAAUAUUACGGGUA | -2.63 ± 0.24 | -0.0625 ± 0.14 |
| GUAUAGCAAUAUUACGAAGG | -3.44 ± 0.36 | -1.61 ± 0.29 |
| AGUCAGCAAUAUUACGUUGU | -3.18 ± 0.12 | -2.87 ± 0.18 |
| UGUAAGCAAUAUUACGUGCA | -0.738 ± 0.12 | -0.62 ± 0.11 |
| CUACAGCAAUAUUACGCGUU | -4.43 ± 0.23 | -2.37 ± 0.21 |
| UGUGAGCAAUAUUACGCUUG | -3.29 ± 0.31 | -3.13 ± 0.47 |
| AAAUAGCAAUAUUACGGGCU | -2.04 ± 0.15 | -0.367 ± 0.13 |
| CAAAAGCAAUAUUACGUGGC | -3.26 ± 0.13 | -2.6 ± 0.2 |
| GCACAGCAAUAUUACGUAUU | -1 ± 0.047 | -0.335 ± 0.057 |
| UAAUAGCAAUAUUACGCGAC | -3.42 ± 0.35 | -1.61 ± 0.34 |
| GACAAGCAAUAUUACGACCU | 0.335 ± 0.11 | -0.133 ± 0.12 |
| CACUAGCAAUAUUACGGGUG | -4.03 ± 0.36 | -2.57 ± 0.21 |
| CGUUAGCAAUAUUACGCUCU | -1.56 ± 0.14 | -1.07 ± 0.17 |
| AUGCAGCAAUAUUACGGUUC | -2.28 ± 0.088 | -1.83 ± 0.13 |
| UGACAGCAAUAUUACGAGCG | -0.264 ± 0.067 | -0.0667 ± 0.079 |
| CGAUAGCAAUAUUACGUCAU | -2.2 ± 0.15 | -2.02 ± 0.18 |
| AUUUAGCAAUAUUACGAGGA | -2.7 ± 0.49 | -2.18 ± 0.4 |
| UCAUAGCAAUAUUACGUGGG | -3.39 ± 0.16 | -1.75 ± 0.098 |
| UGAGAGCAAUAUUACGAACA | -0.706 ± 0.27 | -0.855 ± 0.2 |
